The source of these data is US20240417476A1 (ATYR PHARMA, published 2024).

Where two headings read alike, the source gives them in different places. Ends that are not written are not given here. Some results are limits rather than exact numbers.

Test [1] deals with T1, NRP2b peptide (biotinylated) (human, biotin-conjugated, site not stated).
T1 construct: also called NRP2b isoform specific peptide
T1 peptide: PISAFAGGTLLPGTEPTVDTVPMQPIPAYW
As to the kind of experiment: peptide ELISA. In general terms: An ELISA detects its analyte on a solid surface through an enzyme-linked reagent.

Test [2] deals with T2, NRP2a_scan 3 peptide (biotinylated) (human, also: biotin-conjugated, site not given here).
T2 peptide: HEREGYEDEIDD
As to the kind of experiment: BLI, peptide on sensor.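 Also: octet RED96e biolayer interferometry with biotin-conjugated NRP2 peptides spanning isoform-specific regions (human and mouse) loaded on biosensors, antibodies applied at 50 nM, association read over 300 s.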

For test [3], the target named is T3, NRP2a_scan 4 peptide (biotinylated) (human, also: biotin-conjugated, site not given here).
T3 peptide: EGYEDEIDDEYE
As to the kind of experiment: BLI, peptide on sensor.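 Also: octet RED96e biolayer interferometry with biotin-conjugated NRP2 peptides spanning isoform-specific regions (human and mouse) loaded on biosensors, antibodies applied at 50 nM, association read over 300 s.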 In general terms: BLI is a label-free optical method that tracks binding on a fibre tip over time.

In test [4] the target is T4, NRP2a_scan 5 peptide (biotinylated) (human, also: biotin-conjugated, site not given here).
T4 peptide: EDEIDDEYEVDW
As to the kind of experiment: BLI, peptide on sensor.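 Also: octet RED96e biolayer interferometry with biotin-conjugated NRP2 peptides spanning isoform-specific regions (human and mouse) loaded on biosensors, antibodies applied at 50 nM, association read over 300 s.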

Test [5] deals with T5, NRP2a_scan 6 peptide (biotinylated) (human, also: biotin-conjugated, site not given here).
T5 peptide: IDDEYEVDWSNS
As to the kind of experiment: BLI, peptide on sensor.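 Also: octet RED96e biolayer interferometry with biotin-conjugated NRP2 peptides spanning isoform-specific regions (human and mouse) loaded on biosensors, antibodies applied at 50 nM, association read over 300 s.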

Test [6] has as its target T6, NRP2a_scan 7 peptide (biotinylated) (human, also: biotin-conjugated, site not given here).
T6 peptide: EYEVDWSNSSSA
As to the kind of experiment: BLI, peptide on sensor.

Test [7] has as its target T7, Mid-NRP2A peptide (biotinylated) (human, biotin-conjugated, site not stated).
T7 peptide: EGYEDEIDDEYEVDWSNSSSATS
As to the kind of experiment: BLI, peptide on sensor.

Test [8] addresses mNRP2b peptide (biotinylated) (mouse, biotin-conjugated, site not stated). As to the kind of experiment: BLI, peptide on sensor.
For test [9], the target named is Short NRP2A peptide (biotinylated) (human, biotin-conjugated, site not stated). As to the kind of experiment: BLI, peptide on sensor, 50 nM antibody.
Test [10] has as its target T8, NRP2a_scan 1 peptide (biotinylated) (human, also: biotin-conjugated, site not given here).
T8 peptide: VDIPEIHEREGY
As to the kind of experiment: BLI, peptide on sensor, 50 nM antibody.

The target of test [11] is T9, NRP2a_scan 2 peptide (biotinylated) (human, also: biotin-conjugated, site not given here).
T9 peptide: PEIHEREGYEDE
As to the kind of experiment: BLI, peptide on sensor, 50 nM antibody.

In test [12] the target is T10, NRP2A peptide (biotinylated) (human, biotin-conjugated, site not stated).
T10 construct: also called NPR2A; NRP2a specific peptide
As to the kind of experiment: BLI, isoform peptide on sensor, 50 nM antibody.

Test [13] has as its target T11, Human NRP2a v2 (926aa) in pBiT2.1-C with C-terminal split NanoLuc tag, expressed in Expi293 cells (human, UniProt O60462 23-931).
T11 construct: cDNA Origene RCC220706, isoform 2; also called pBiT2.1-C-NRP2v2 (isoform 2); NRP2 v2; not shown: vector-encoded spacer and small split NanoLuc fragment (pBiT2.1-C)
As to the kind of experiment: CCL21-induced NRP2a/CCR7 receptor dimerization (NanoBiT, Example 7); mark beside the epitope box.

Test [14] concerns the target T12, human NRP2b expressed on Expi293F cells (human).
T12 construct: also called full length NRP2b
T12 chain: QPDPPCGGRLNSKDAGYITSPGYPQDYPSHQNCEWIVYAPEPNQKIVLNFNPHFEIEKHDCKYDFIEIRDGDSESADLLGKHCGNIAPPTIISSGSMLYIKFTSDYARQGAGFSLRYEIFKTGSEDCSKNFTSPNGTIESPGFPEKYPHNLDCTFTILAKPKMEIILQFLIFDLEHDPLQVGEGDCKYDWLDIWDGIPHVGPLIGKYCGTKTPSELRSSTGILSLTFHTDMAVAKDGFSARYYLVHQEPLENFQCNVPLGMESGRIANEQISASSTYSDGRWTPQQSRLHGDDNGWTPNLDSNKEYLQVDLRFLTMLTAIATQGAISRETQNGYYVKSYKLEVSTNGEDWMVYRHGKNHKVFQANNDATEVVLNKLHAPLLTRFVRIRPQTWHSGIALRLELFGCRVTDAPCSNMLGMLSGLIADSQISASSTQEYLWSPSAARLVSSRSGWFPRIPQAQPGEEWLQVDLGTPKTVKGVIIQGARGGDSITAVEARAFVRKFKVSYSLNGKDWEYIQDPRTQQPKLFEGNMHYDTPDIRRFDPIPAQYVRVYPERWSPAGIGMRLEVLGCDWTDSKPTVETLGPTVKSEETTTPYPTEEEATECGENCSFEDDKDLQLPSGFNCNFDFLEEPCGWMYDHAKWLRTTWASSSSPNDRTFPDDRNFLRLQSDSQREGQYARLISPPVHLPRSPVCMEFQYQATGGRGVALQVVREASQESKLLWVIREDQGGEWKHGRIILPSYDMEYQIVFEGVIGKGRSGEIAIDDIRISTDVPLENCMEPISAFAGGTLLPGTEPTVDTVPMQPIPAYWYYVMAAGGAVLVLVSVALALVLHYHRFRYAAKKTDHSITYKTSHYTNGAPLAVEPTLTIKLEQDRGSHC
As to the kind of experiment: flow cytometry, Expi293F cells transfected with the target, fluorescent anti-mouse secondary; MFI signal relative to mock-transfected cells. (In flow cytometry, cells or beads pass a laser one at a time.)
Experimental: (§1) Signal to noise was calculated as the staining intensity of transfected cells compared to an un-transfected ‘mock’ population.

Another test deals with T13, NRP2v3.
T13 construct: not the NanoLuc-tagged construct m33; also called human NRP2 v3 expressed on Expi293F cells; NRP2a v3
T13 chain: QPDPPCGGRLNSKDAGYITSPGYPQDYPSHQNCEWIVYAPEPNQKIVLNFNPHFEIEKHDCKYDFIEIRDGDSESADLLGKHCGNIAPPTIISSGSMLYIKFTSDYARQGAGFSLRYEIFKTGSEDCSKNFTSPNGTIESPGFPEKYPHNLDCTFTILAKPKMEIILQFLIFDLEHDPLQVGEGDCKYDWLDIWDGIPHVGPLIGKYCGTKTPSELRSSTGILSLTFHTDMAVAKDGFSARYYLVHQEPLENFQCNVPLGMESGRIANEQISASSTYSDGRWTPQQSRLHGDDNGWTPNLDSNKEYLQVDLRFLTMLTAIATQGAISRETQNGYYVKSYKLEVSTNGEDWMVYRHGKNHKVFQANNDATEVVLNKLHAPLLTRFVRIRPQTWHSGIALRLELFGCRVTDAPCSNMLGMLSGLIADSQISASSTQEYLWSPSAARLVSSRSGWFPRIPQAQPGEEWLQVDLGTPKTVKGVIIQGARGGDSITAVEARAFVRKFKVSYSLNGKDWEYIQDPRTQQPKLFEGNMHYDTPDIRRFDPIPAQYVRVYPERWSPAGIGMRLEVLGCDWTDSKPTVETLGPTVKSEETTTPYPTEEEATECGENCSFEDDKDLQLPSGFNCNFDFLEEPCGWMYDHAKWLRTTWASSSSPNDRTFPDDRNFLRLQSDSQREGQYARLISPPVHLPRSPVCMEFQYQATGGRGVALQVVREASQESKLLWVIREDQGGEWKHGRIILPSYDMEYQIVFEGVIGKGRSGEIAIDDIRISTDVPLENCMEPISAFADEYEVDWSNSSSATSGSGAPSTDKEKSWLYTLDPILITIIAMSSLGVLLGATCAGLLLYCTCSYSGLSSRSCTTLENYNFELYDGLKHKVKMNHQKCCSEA
Described as above.

The target of test [15] is T14, CCR7, full coding sequence, in pBiT1.1-C with C-terminal split NanoLuc tag, expressed in Expi293F cells (human, UniProt P32248 25-378).
T14 construct: cDNA Genscript OHu24012; not shown: vector-encoded spacer and large split NanoLuc fragment (pBiT1.1-C)
T14 sequence: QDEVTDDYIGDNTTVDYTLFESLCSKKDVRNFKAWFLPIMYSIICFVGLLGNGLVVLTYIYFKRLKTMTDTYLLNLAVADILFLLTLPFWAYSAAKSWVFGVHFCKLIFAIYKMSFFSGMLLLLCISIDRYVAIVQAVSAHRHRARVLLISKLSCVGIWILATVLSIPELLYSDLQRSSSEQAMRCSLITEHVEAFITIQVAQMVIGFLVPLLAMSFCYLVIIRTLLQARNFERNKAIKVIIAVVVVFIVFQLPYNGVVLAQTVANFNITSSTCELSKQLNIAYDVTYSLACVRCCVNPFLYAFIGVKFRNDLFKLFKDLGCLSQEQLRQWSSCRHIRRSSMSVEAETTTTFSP
As to the kind of experiment: NanoBiT split-luciferase complementation of tagged NRP2 and CCR7 in Expi293F cells; normalized to wells without ligand.

The target in test [16] is T14, CCR7, full coding sequence, in …. Described as above. The source holds these as a separate data set.
Experimental: The vectors were then transfected into Expi293F cells by Expifectamine transfection reagent (Fisher Scientific) at 1 ug per mL at a density of 1 million cells per mL. Approximately 16-20 hours post transfection, cells were washed, plated at 100,000 cells/well in luminometer plates, and then cell permeable luciferase substrate was added and luminescence was monitored on a GloMax96 (Promega) until stabilization of luminescent signal was achieved.

Sequence of mNRP2b peptide (biotinylated) (mouse, biotin-conjugated, site not stated) (peptide, as listed by the source): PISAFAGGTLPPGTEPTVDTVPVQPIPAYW
Experimental for NRP2v3: as §1

B1: aNRP2-404v2 (antibody, V domains shown)
VH: EVQLQQSGPELVKPGASVKISCKASGYTFTDYNMHWVKQSHGKSLEWIGYIYPYNGDSGYNQRFKSEATLTVDISSSTAYMELRSLTSDDSAVYYCARLGRGYWGQGTTLTVSS
VL: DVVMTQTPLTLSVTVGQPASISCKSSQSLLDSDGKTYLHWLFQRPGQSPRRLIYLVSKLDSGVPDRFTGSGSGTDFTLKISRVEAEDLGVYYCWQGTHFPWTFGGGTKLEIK
notes: Mouse monoclonal
With B1, the binding result in test [1] was “no binding (tested: <3x blank)”; in test [2] it was “no binding (tested: 50 nM)”; in test [3], “no binding (tested: 50 nM)”; in [4] it was “no binding (tested: 50 nM)”; in test [5], “no binding (tested: 50 nM)”; in test [6] it was “no binding (tested: 50 nM)”. Also, the binding result in test [7] was “no binding (tested: 50 nM)”; in test [8] it was “no binding (tested: 50 nM)”; in [9], “binds”; in [10] it was “binds”; in [11] it was “binds”; in test [12] it was “binds”. For the same molecule, the binding result (in test [14]; with NRP2v3) was “no binding” in each case. Further, the blocks receptor dimerization in [13] is below 50%.

B2: Human NRP2b v4 (906aa) with C-terminal split NanoLuc tag, expressed in Expi293F cells (receptor)
chain: QPDPPCGGRLNSKDAGYITSPGYPQDYPSHQNCEWIVYAPEPNQKIVLNFNPHFEIEKHDCKYDFIEIRDGDSESADLLGKHCGNIAPPTIISSGSMLYIKFTSDYARQGAGFSLRYEIFKTGSEDCSKNFTSPNGTIESPGFPEKYPHNLDCTFTILAKPKMEIILQFLIFDLEHDPLQVGEGDCKYDWLDIWDGIPHVGPLIGKYCGTKTPSELRSSTGILSLTFHTDMAVAKDGFSARYYLVHQEPLENFQCNVPLGMESGRIANEQISASSTYSDGRWTPQQSRLHGDDNGWTPNLDSNKEYLQVDLRFLTMLTAIATQGAISRETQNGYYVKSYKLEVSTNGEDWMVYRHGKNHKVFQANNDATEVVLNKLHAPLLTRFVRIRPQTWHSGIALRLELFGCRVTDAPCSNMLGMLSGLIADSQISASSTQEYLWSPSAARLVSSRSGWFPRIPQAQPGEEWLQVDLGTPKTVKGVIIQGARGGDSITAVEARAFVRKFKVSYSLNGKDWEYIQDPRTQQPKLFEGNMHYDTPDIRRFDPIPAQYVRVYPERWSPAGIGMRLEVLGCDWTDSKPTVETLGPTVKSEETTTPYPTEEEATECGENCSFEDDKDLQLPSGFNCNFDFLEEPCGWMYDHAKWLRTTWASSSSPNDRTFPDDRNFLRLQSDSQREGQYARLISPPVHLPRSPVCMEFQYQATGGRGVALQVVREASQESKLLWVIREDQGGEWKHGRIILPSYDMEYQIVFEGVIGKGRSGEIAIDDIRISTDVPLENCMEPISAFAGENFKGGTLLPGTEPTVDTVPMQPIPAYWYYVMAAGGAVLVLVSVALALVLHYHRFRYAAKKTDHSITYKTSHYTNGAPLAVEPTLTIKLEQDRGSHC
notes: not shown: vector-encoded spacer and split NanoLuc fragment
As to B2, the binding result in test [15] is listed as “no binding (tested: 100 nM CCL21 or CCL19 (from the text))”.

B3: Human NRP2b v5 with C-terminal split NanoLuc tag, expressed in Expi293F cells (receptor)
chain: QPDPPCGGRLNSKDAGYITSPGYPQDYPSHQNCEWIVYAPEPNQKIVLNFNPHFEIEKHDCKYDFIEIRDGDSESADLLGKHCGNIAPPTIISSGSMLYIKFTSDYARQGAGFSLRYEIFKTGSEDCSKNFTSPNGTIESPGFPEKYPHNLDCTFTILAKPKMEIILQFLIFDLEHDPLQVGEGDCKYDWLDIWDGIPHVGPLIGKYCGTKTPSELRSSTGILSLTFHTDMAVAKDGFSARYYLVHQEPLENFQCNVPLGMESGRIANEQISASSTYSDGRWTPQQSRLHGDDNGWTPNLDSNKEYLQVDLRFLTMLTAIATQGAISRETQNGYYVKSYKLEVSTNGEDWMVYRHGKNHKVFQANNDATEVVLNKLHAPLLTRFVRIRPQTWHSGIALRLELFGCRVTDAPCSNMLGMLSGLIADSQISASSTQEYLWSPSAARLVSSRSGWFPRIPQAQPGEEWLQVDLGTPKTVKGVIIQGARGGDSITAVEARAFVRKFKVSYSLNGKDWEYIQDPRTQQPKLFEGNMHYDTPDIRRFDPIPAQYVRVYPERWSPAGIGMRLEVLGCDWTDSKPTVETLGPTVKSEETTTPYPTEEEATECGENCSFEDDKDLQLPSGFNCNFDFLEEPCGWMYDHAKWLRTTWASSSSPNDRTFPDDRNFLRLQSDSQREGQYARLISPPVHLPRSPVCMEFQYQATGGRGVALQVVREASQESKLLWVIREDQGGEWKHGRIILPSYDMEYQIVFEGVIGKGRSGEIAIDDIRISTDVPLENCMEPISAFAGGTLLPGTEPTVDTVPMQPIPAYWYYVMAAGGAVLVLVSVALALVLHYHRFRYAAKKTDHSITYKTSHYTNGAPLAVEPTLTIKLEQDRGSHC
notes: cDNA Origene RC210928, isoform 5; not shown: vector-encoded spacer and split NanoLuc fragment
As for B3, the binding result in [16] is “no binding (tested: 100 nM CCL21 or CCL19 (from the text))”.
